Test results: publication PMC8789049, “Regulation of AR mRNA translation in response to acute AR pathway inhibition”

T1: YTHDF3 (UniProt Q7Z739 1-585)
T1 sequence: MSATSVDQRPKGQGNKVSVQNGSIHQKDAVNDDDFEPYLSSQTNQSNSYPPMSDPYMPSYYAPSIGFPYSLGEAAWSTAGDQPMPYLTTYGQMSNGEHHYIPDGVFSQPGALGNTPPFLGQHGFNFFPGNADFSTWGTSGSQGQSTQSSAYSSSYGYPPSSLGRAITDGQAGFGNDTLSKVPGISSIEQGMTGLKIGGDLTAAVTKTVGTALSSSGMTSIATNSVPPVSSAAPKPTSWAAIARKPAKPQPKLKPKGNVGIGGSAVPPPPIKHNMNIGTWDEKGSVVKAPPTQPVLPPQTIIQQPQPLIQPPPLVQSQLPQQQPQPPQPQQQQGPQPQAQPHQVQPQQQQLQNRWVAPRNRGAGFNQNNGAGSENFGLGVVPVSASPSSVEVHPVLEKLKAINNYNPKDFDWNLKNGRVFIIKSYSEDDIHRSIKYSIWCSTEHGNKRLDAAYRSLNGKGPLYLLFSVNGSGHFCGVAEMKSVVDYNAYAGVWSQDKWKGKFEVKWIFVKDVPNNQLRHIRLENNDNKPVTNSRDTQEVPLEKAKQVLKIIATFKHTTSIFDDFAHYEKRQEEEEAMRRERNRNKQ


What was measured:
YTHDF3 = molecular target: T1, YTHDF3; assay: EMSA; REMSA: 6.25 nM biotin probe, 100 mM HEPES pH 7.3, 200 mM KCl, 10 mM MgCl2, 10 mM DTT, 5% glycerol, 2 ug tRNA, 20 ul, 30 min, temperature not stated; 6% native PAGE in 0.5x TBE; conditions: protein: recombinant; tags: His-tag (pET-28a(+)-TEV); label: biotin
G3BP1 = G3BP1 (UniProt Q13283 1-466); assay: as above; conditions: protein: recombinant; tags: His-tag (pET-28a(+)-TEV); chain copies: 2; label: biotin
Sequence of G3BP1 (Q13283 whole entry): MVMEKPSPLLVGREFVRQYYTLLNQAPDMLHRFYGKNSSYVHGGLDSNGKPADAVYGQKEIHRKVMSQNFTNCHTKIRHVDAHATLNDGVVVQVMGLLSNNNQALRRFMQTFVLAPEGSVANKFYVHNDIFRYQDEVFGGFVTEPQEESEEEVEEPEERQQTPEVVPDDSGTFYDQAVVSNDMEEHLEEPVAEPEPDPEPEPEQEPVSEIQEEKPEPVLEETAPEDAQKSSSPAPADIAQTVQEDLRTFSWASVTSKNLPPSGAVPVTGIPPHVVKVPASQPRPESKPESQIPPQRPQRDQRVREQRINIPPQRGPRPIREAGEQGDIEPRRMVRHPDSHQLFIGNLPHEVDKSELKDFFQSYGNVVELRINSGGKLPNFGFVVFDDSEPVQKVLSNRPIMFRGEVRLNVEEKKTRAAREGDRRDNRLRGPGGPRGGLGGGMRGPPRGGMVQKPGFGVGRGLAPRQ

Binder | binding result (YTHDF3) | binding result (G3BP1)
CCUGUGAGGGACUGGCCACUCAGACCCACU (ssRNA, m6A in GGm6ACU) [6908-m6A] | binds | –
AACUCAAUGGAACUGACUGAGAUUUACCAC (ssRNA, m6A in GAm6ACU) [8953-m6A] | binds | –
AACUCAAUGGAACUGACUGAGAUUUACCAC (ssRNA) [8953-UM] | no binding | binds
GGAUAUUUUGAAGGACUGUCAUAUAUCUUU (ssRNA, m6A in GGm6ACU) [7301-m6A] | binds | –
GGAUAUUUUGAAGGACUGUCAUAUAUCUUU (ssRNA) [7301-UM] | no binding | binds
CCUGUGAGGGACUGGCCACUCAGACCCACU (ssRNA) [6908-UM] | no binding | binds
